What was measured:
human FOLR1-HIS = molecular target: T1, human FOLR1-HIS (human, UniProt P15328 25-233); experiment: SPR (Biacore), antibody captured on anti-Fc, human FOLR1-HIS analyte, 25 C
T1 construct: Analyte of the Biacore assay; also called FolRα-ECD; extracellular domain of FOLR1; not shown: HIS tag

[1] = molecular target: T2, human folate receptor alpha (hFOLR1) (human, UniProt P15328 25-234); experiment: cell-based or functional assay
[2] = molecular target: T3, murine folate receptor alpha (mouse, UniProt P35846 25-232); experiment: FACS, CHO-mFOLR1 cells;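 further: flow cytometry binding of serially diluted test antibodies to transfected CHO cells on ice, mean fluorescence intensity, parental CHO cells give background, Kd from one-site specific binding fit with Hill slope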
T3 construct: Expressed on the surface of stably transfected CHO cells; also called mouse FolR1; CHO-mouse FolR1

[3] = molecular target: T2, human folate receptor alpha (hFOLR1); experiment: FACS, CHO-hFOLR1 cells;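 further: flow cytometry of serially diluted antibodies binding CHO cells stably expressing the receptor, 60 min on ice, mixed with dye-tagged parental CHO as background control, one-site specific fit with Hill slope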
[4] = molecular target: T4, cynomolgus monkey folate receptor alpha (cynomolgus monkey, UniProt P15328 25-234 (human entry)); experiment: FACS, CHO-cFOLR1 cells
T4 construct: Expressed on the surface of stably transfected CHO cells; also called cyno FolR1; CHO-cyno FolR1
T4 sequence (P15328 other isoform, or with tags, fused parts or gaps limits assumed): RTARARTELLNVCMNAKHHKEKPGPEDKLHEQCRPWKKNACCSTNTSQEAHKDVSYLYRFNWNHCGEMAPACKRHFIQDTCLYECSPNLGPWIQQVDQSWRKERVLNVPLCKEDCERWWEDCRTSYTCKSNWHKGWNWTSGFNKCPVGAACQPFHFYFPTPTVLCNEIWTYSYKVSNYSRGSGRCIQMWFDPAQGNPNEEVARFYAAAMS

T1 sequence (P15328 25-233 limits assumed): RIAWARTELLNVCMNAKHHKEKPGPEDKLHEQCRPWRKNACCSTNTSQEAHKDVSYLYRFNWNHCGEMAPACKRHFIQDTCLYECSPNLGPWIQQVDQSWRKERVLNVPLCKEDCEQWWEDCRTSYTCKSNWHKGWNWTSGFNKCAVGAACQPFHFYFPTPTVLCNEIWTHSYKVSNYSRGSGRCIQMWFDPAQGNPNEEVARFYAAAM
T2 sequence (P15328 25-234 limits assumed): as the sequence (P15328 other isoform, or with tags, fused parts or gaps limits assumed) above, with T2I, R4W, K37R, R117Q, P146A, Y171H counted along it
T3 sequence (P35846 25-232 limits assumed): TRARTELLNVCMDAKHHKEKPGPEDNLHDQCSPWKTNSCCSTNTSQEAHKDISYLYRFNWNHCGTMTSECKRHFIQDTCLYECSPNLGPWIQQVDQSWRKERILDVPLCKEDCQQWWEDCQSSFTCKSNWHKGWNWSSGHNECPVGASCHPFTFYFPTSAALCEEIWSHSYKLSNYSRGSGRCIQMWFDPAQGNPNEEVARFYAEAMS

Kd (human FOLR1-HIS)	koff (human FOLR1-HIS)	kon (human FOLR1-HIS)	Binder	also measured
6.4 nM	0.00379 s⁻¹	591000 M⁻¹ s⁻¹	SRP1848-G04 (antibody, V domains shown, IgG with common trastuzumab LC, cell-free expressed, HIS- and FLAG-tagged; also called Antibody 49) VH: EVQLVESGGGLVQPGGSLRLSCAASGFNIHSTDIHWVRQAPGKGLEWVAYITPAGGATFYADSVKGRFTISADTSKNTAYLQMNSLRAEDTAVYYCARYPYWFAGYMDYWGQGTLVTVSS VL: not shown	–
9.14 nM	0.00637 s⁻¹	696000 M⁻¹ s⁻¹	SRP1848-G11 (antibody, V domains shown, IgG with common trastuzumab LC, cell-free expressed, HIS- and FLAG-tagged; also called Antibody 54) VH: EVQLVESGGGLVQPGGSLRLSCAASGFNISSTDIHWVRQAPGKGLEWVAYITPAGGATWYADSVKGRFTISADTSKNTAYLQMNSLRAEDTAVYYCARYPYWFSGYMDYWGQGTLVTVSS VL: not shown	–
7.45 nM	0.00451 s⁻¹	605000 M⁻¹ s⁻¹	SRP1848-G07 (antibody, V domains shown, IgG with common trastuzumab LC, cell-free expressed, HIS- and FLAG-tagged; also called Antibody 51) VH: EVQLVESGGGLVQPGGSLRLSCAASGFNIHSTDIHWVRQAPGKGLEWVAYITPAGGATWYADSVKGRFTISADTSKNTAYLQMNSLRAEDTAVYYCARYPFWFAGYMDYWGQGTLVTVSS VL: not shown	–
4.55 nM	0.00345 s⁻¹	758000 M⁻¹ s⁻¹	SRP1848-G10 (antibody, V domains shown, IgG with common trastuzumab LC, cell-free expressed, HIS- and FLAG-tagged; also called Antibody 53) VH: EVQLVESGGGLVQPGSSLRLSCAASGFNIRSTDIHWVRQAPGKGLEWVAYITPAGGATYYADSVKGRFTISADTSKNTAYLQMNSLRAEDTAVYYCARYPYWFAGYIDYWGQGTLVTVSS VL: not shown	–
7.56 nM	0.00646 s⁻¹	856000 M⁻¹ s⁻¹	SRP1848-G09 (antibody, V domains shown, IgG with common trastuzumab LC, cell-free expressed, HIS- and FLAG-tagged; also called Antibody 52) VH: EVQLVESGGGLVQPGGSLRLSCAASGFNIRGTDIHWVRQAPGKGLEWVAYITPAGGATFYADSVKGRFTISADTSKNTAYLQMNSLRAEDTAVYYCARHEYWFSGYMDYWGQGTLVTVSS VL: not shown	–
6.7 nM	0.00381 s⁻¹	569000 M⁻¹ s⁻¹	SRP1848-G06 (antibody, V domains shown, IgG with common trastuzumab LC, cell-free expressed, HIS- and FLAG-tagged; also called Antibody 50) VH: EVQLVESGGGLVQPGGSLRLSCAASGFNIRSTDIHWVRQAPGKGLEWVAYITPAGGATYYADNVKGRFTISADTSKNTAYLQMNSLRAEDTAVYYCARQPYWFAGYMDYWGQGTLVTVSS VL: not shown	–
2.67 nM	0.00183 s⁻¹	688000 M⁻¹ s⁻¹	SRP1848-E03 (antibody, V domains shown, IgG with common trastuzumab LC, cell-free expressed, HIS- and FLAG-tagged; also called Antibody 33) VH: EVQLVESGGGLAQPGGSLRLSCAASGFNIGNYYIHWVRQAPGKGLEWVGGITPRDGFTDYADSVKGRFTISADTSKNTAYLQVNSLRAEDTAVYYCARGSWSWPAGHSYYLDYWGQGTLVTVSS VL: not shown	–
5.19 nM	–	–	SRP1848-D03 (antibody, V domains shown, IgG with common trastuzumab LC, cell-free expressed, HIS- and FLAG-tagged; also called Antibody 25) VH: EVQLVESGGGVVQPGGSLRLSCAASGFNIRYFSIHWVRQAPGKGLEWVGDIFPNDGSTDYADSVKGRFTISADTSKNTAYLQMNSLRAEETAVYYCARGHWSWPSGYWYYLDYWGQGTLVTVSS VL: not shown	–
1.63 nM	–	–	SRP1848-E06 (antibody, V domains shown, IgG with common trastuzumab LC, cell-free expressed, HIS- and FLAG-tagged; also called Antibody 35) VH: EVQLVESGGGLVQPSGSLRLSCAASGFNINRYYIHWVRQAPGKGLEWVGGITPNDGYTDYADSVEGRFTTSADTSKNTAYLQMNSLRAEDTAVYYCARGTWSWPSGHSYYLDYWGQGTLVTVSS VL: not shown	–
–	–	–	SRP1848-F04 (antibody, V domains shown, HC variant paired with trastuzumab LC, cell-free expressed, HIS- and FLAG-tagged; also called Antibody 39) VH: EVQLVESGGGLVQPGGSLRLSCAASGFNISNYSIHWVRQAPGKGLEWVGEIYPIDGITDYADSVKGRFTISADTSKNTAYLQMNSLRAEDTAVYYCARGSWFWRSGYGYYLDYWGQGTLVTVSS VL: not shown	Igrov, 2° Antibody Cell Killing, Nb-SC239: EC50 [1]: 0.015 nM; Igrov, 2° Antibody Cell Killing, Nb-SC239: Span [1]: 73%; KB, 2° Antibody Cell Killing, Nb-239: EC50 [1]: 0.096 nM; KB, 2° Antibody Cell Killing, Nb-239: Span [1]: 93%; Bmax (MFI) [2]: 2740 MFI; Kd [2]: 11 nM; Bmax (MFI) [3]: 26900 MFI; Kd [3]: 0.73 nM; Bmax (MFI) [4]: 26400 MFI; Kd [4]: 0.55 nM
17 nM	0.00775 s⁻¹	456000 M⁻¹ s⁻¹	SRP1848-F06 (antibody, V domains shown, IgG with common trastuzumab LC, cell-free expressed, HIS- and FLAG-tagged; also called Antibody 41) VH: EVQLVESGGGLVQPGGSLRLSCAASGFNISLSYIHWVRQAPGKGLEWVGGISPIDGNTDYADSVKGRFTISADTSKNTAYLQMNSLRAEDTAVYYCARGFWAWRSGYGYYLDYWGQGTLVTVSS VL: not shown	–

From US20250090676A1 (SUTRO BIOPHARMA, published 2025)
